Assay results taken from patent US7244563B2, “Genes for plant fatty acid modifying enzymes associated with conjugated double bond formation” (E. I. du Pont de Nemours and Company, priority 2002, dated 2007).

Legend:
[1] = tested on: Tobacco (Nicotiana tabacum L. cv Xanthi) callus; experiment: Fatty acid analysis (GC, GC-MS) of transgenic tobacco callus expressing the cDNA; format: cell-based; settings: CaMV 35S promoter
From the text: The cDNAs encoding fatty acid modifying enzymes associated with conjugated double bond synthesis in seeds of Impatiens balsamina and Momordica charantia were introduced into a plant expression vector designated pML63. Vector pML63 contains the uidA gene (which encodes the GUS enzyme) operably linked to the CaMV35S promoter and 3′ NOS sequence. pML63 is modified from pMH40 to produce a minimal 3′ NOS terminator fragment. pMH 40 is described in WO 98/16650 which was published on Apr. 23, 1998, the disclosure of which are hereby incorporated by reference. Using standard techniques familiar to those skilled in the art, the 770 base pair terminator sequence contained in pMH40 was replaced with a new 3′ NOS terminator sequence comprising nucleotides 1277 to 1556 of the sequence published by Depicker et al. (1982, J. Appl. Genet. 1:561–574). A chimeric gene was constructed comprising cDNAs encoding fatty acid modifying enzymes associated with conjugated double bond synthesis in seeds of Impatiens balsamina and Momordica charantia in sense orientation with respect to the cauliflower mosaic virus 35S promoter that is located 5′ to the cDNA fragment and termination sequences from the nopaline synthase (NOS) that are located 3′ to the cDNA fragment. The cDNAs for the Impatiens polypeptide was introduced in the NcoI and EcoRI sites of the vector pML63. The cDNA for the Momordica polypeptide was introduced into the NcoI and SmaI sites of the vector pML63. The NcoI and EcoRI sites flanking the Impatiens cDNA were generated by PCR amplification of the cDNAs using oligonucleotide primers that contained these restriction sites (SEQ ID NO:7 and SEQ ID NO:8, for the sense and antisense oligonucleotides, respectively). PCR amplification was conducted using the Pfu DNA polymerase. The NcoI site flanking the 5′ end of the Momordica cDNA was generated by PCR amplification in a similar manner (SEQ ID NO:9 and SEQ ID NO:10). The 3′ end of the PCR-generated Momordica cDNA was blunt-ended which allowed for cloning into the SmaI site of the vector pML63. The resulting fusions of the cauliflower mosaic virus 35S promoter with the cDNAs encoding fatty acid modifying enzymes associated with conjugated double bond synthesis in seeds of Impatiens balsamina or Momordica charantia and NOS termination sequences were released from the vector pML63 by digestion with XbaI. The resulting XbaI fragment was ligated into the corresponding site of the binary vector pZS199 The vector pZS199 contains the following elements: (1) the chimeric gene nopaline synthase/neomycin phosphotransferase as a selectable marker for transformed plant cells (Brevan et al. (1984) Nature 304:184–186), (2) the left and right borders of the T-DNA of the Ti plasmid (Brevan et al. (1984) Nucl. Acids Res. 12:8711–8720), (3) the E. coli lacZ-complementing segment (Vieria and Messing (1982) Gene 19:259–267) with unique restriction endonuclease sites for EcoRI, KpnI, BamHI, XbaI and SalI, (4) the bacterial replication origin from the Pseudomonas plasmid pVS1 (Itoh et al. (1984) Plasmid 11:206–220), and (5) the bacterial neomycin phosphotransferase gene from Tn5 (Berg et al. (1975) Proc. Natl. Acad. Sci. U.S.A. 72:3628–3632) as a selectable marker for transformed A. tumefaciens. The nopaline synthase promoter in the plant selectable marker was replaced by the 35S promoter (Odell et al. (1985) Nature, 313:810–813) by a standard restriction endonuclease digestion and ligation strategy.
Gene fusions of the Impatiens balsamina or Momordica charantia cDNAs with the cauliflower mosaic virus 35S promoter and the NOS termination sequences in vector pZS199 were introduced into Agrobacterium tumefaciens strain LBA4404. […]

soybean embryos = experiment: Fatty acid composition of transgenic soybean somatic embryos (GC, GC-MS); format: cell-based; settings: for 16:0 / 18:0 / 18:1 / 18:2 / 18:3 / α-Parinaric / Eleostearic / Other: single soybean embryo; for 16:0 / 18:0 / 18:1 / 18:2 / 18:3 / α-Parinaric: % of total oil weight; for Eleostearic: includes cis-trans isomers of α-eleostearic acid (<1.0 wt %); for Other: primarily 20:0, 20:1, 22:0, and 22:1
Procedure: Gene fusions of the Impatiens balsamina or Momordica charantia cDNAs with the conglycinin promoter and phaseolin termination sequences in vector pKS67 were introduced into soybean embryos using the particle bombardment method of transformation. To induce somatic embryos, cotyledons, 3–5 mm in length dissected from surface sterilized, immature seeds of a soybean cultivar A2872 or JACK-910 were cultured in the light or dark at 26° C. on an appropriate agar medium for 6–10 weeks. Somatic embryos that produce secondary embryos were then excised and placed into a suitable liquid medium. After repeated selection for clusters of somatic embryos that multiplied as early, globular staged embryos, the suspensions were maintained as described below.
Soybean embryogenic suspension cultures were then transformed with the vector pKS67 containing the Impatiens or Momordica cDNA for fatty acid modifying enzymes associated with conjugated double synthesis by the method of particle gun bombardment (Klein et al. (1987) Nature (London) 327:70, U.S. Pat. No. 4,945,050). A DuPont Biolistic™ PDS1000/HE instrument (helium retrofit) was used for these transformations.
Five to seven days post bombardment, the liquid media was exchanged with fresh media, and eleven to twelve days post bombardment with fresh media containing […] hygromycin. This selective media was refreshed weekly. Seven to eight weeks post bombardment, green, transformed tissue was observed growing from untransformed, necrotic embryogenic clusters. Isolated green tissue was removed and inoculated into individual flasks to generate new, clonally propagated, transformed embryogenic suspension cultures. Each new line was treated as an independent transformation event. These suspensions were then subcultured and maintained as clusters of immature embryos.
Transgenic soybean embryos selected and maintained in this manner were analyzed for eleostearic acid and parinaric acid content using methods described in Example 4 (Table 1). Individual embryos expressing either the Impatiens or Momordica fatty acid modifying enzyme for conjugated double bond synthesis were homogenized in 1% (w/v) sodium methoxide in methanol. Fatty acid methyl esters resulting from this transesterification step were analyzed by both GC and GC-MS as described in Example 4. Methyl esters of eleostearic and parinaric acids were identified in transgenic soybean extracts by comparison of retention times and mass spectra with those of fatty acid methyl esters prepared from seeds of Impatiens balsamina and Momordica charantia. […] In soybean embryos expressing the Momordica enzyme, eleostearic acid was detected principally as α-eleostearic acid with lesser amounts of at least two other cis-trans isomers of eleostearic acid. […]

[2] = soybean embryos, β-conglycinin promoter, highest amount

Molecule	eleostearic acid accumulated, relative to total fatty acid [1] [%]	parinaric acid accumulated, relative to total fatty acid [1] [%]	16:0 (soybean embryos; independent transgenic line 1) [Weight %]	18:0 (soybean embryos; independent transgenic line 1) [Weight %]	18:1 (soybean embryos; independent transgenic line 1) [Weight %]	18:2 (soybean embryos; independent transgenic line 1) [Weight %]	18:3 (soybean embryos; independent transgenic line 1) [Weight %]	α-Parinaric (soybean embryos; independent transgenic line 1) [Weight %]	16:0 (soybean embryos; independent transgenic line 2) [Weight %]	18:0 (soybean embryos; independent transgenic line 2) [Weight %]	18:1 (soybean embryos; independent transgenic line 2) [Weight %]	18:2 (soybean embryos; independent transgenic line 2) [Weight %]	18:3 (soybean embryos; independent transgenic line 2) [Weight %]	α-Parinaric (soybean embryos; independent transgenic line 2) [Weight %]	16:0 (soybean embryos; independent transgenic line 3) [Weight %]	18:0 (soybean embryos; independent transgenic line 3) [Weight %]	18:1 (soybean embryos; independent transgenic line 3) [Weight %]	18:2 (soybean embryos; independent transgenic line 3) [Weight %]	18:3 (soybean embryos; independent transgenic line 3) [Weight %]	α-Parinaric (soybean embryos; independent transgenic line 3) [Weight %]	other results
MomFad2: Momordica charantia fatty acid modifying enzyme associated with conjugated double bond formation, SEQ ID NO:4, cDNA SEQ ID NO:3 (protein, listed as Momordica charantia) MGGRGAIGVLRNGGGPKKKMGPGQGLGPGERITHARPPFSISQIKKAIPPHCFQRSLRRSFSYLLSDIALVSAFYYVADTYFHRLPHPLLHYLAWPVYWFCQGAVLTGMWGIAHDCGHHAFSDYQLVDDVVGFLIHSLVFVPYFSFKISHRRHHSNTSSVDRDEVFVPKPKAKMPWYFKYLTNPPARVFIIFITLTLGWPMYLTFNISGRYYGRFTSHFDPNSPIFSPKERVLVHISNAGLVATGYLLYRIAMAKGVGWLIRLYGVPLIVLNACVVLITALQHTHPSFPYYDSTEWDWLRGNLVTVDRDYGPIMNRVFHHITDTHVVHHLFPSMPHYNGKEATVAAKRILGEYYQFDGTPIWKAAWREFRECVYVEPDEDDGATSGSSSKGVFWYHNKL	1.7	1.1	6.9	2.4	43.1	24.1	3.1	1.0	7.9	2.1	36.8	29.4	5.1	1.0	8.4	2.3	41.9	25.1	6.1	1.8	Eleostearic (soybean embryos; transgenic line 1): 17.4 Weight %; Other (soybean embryos; transgenic line 1): <2.0 Weight %; Eleostearic (soybean embryos; transgenic line 2): 15.9 Weight %; Other (soybean embryos; transgenic line 2): <2.0 Weight %; Eleostearic (soybean embryos; transgenic line 3): 12.4 Weight %; Other (soybean embryos; transgenic line 3): <2.0 Weight %; eleostearic acid of the total fatty acids (soybean embryos; [2]): ≤ 16.5%; α-parinaric acid of the total fatty acids (soybean embryos; [2]): ≤ 1.5%
ImpFad2: Impatiens balsamina fatty acid modifying enzyme associated with conjugated double bond formation, SEQ ID NO:2, cDNA SEQ ID NO:1 (protein, listed as Impatiens balsamina) MGEVGPTNRTKTKLDKQQESENRVPHEPPPFTLSDLKKAIPPHCFERSLVKSFYHVIHDIIILSFFYYVAANYIPMLPQNLRYVAWPIYWAIQGCVQLGILVLGHECGHHAFSDYQWVDDMVGFVLHSSQLIPYFSWKHSHRRHHSNTASIERDEVYPPAYKNDLPWFAKYLRNPVGRFLMIFGALLFGWPSYLLFNANGRLYDRFASHYDPQSPIFNNRERLQVIASDVGLVFAYFVLYKIALAKGFVWLICVYGVPYVILNGLIVLITFLQHTHPNLPRYDLSEWDWLRGALSTVDRDYGMLNKVFHNVTDTHLVHHLFTTMPHYRAKEATEVIKPILGDYYKFDDTPFLKALWKDMGKCIYVESDVPGKNKGVYWYNNDI	3.4	1.7	13.3	4.2	20.8	46.3	9.2	2.2	13.2	2.5	12.2	53.8	12.5	2.0	13.5	3.1	11.1	53.0	17.3	1.0	Eleostearic (soybean embryos; transgenic line 1): 3.0 Weight %; Other (soybean embryos; transgenic line 1): <1.0 Weight %; Eleostearic (soybean embryos; transgenic line 2): 2.8 Weight %; Other (soybean embryos; transgenic line 2): <1.0 Weight %; Eleostearic (soybean embryos; transgenic line 3): 0.6 Weight %; Other (soybean embryos; transgenic line 3): <1.0 Weight %; α-eleostearic acid of the total fatty acids (soybean embryos; [2]): ≤ 3%; α-parinaric acid of the total fatty acids (soybean embryos; [2]): ≤ 2%
